# Laboratory results: publication PMC3378891
# T1: FANCI (chicken, UniProt B0I564 1-1338)
# T1 sequence: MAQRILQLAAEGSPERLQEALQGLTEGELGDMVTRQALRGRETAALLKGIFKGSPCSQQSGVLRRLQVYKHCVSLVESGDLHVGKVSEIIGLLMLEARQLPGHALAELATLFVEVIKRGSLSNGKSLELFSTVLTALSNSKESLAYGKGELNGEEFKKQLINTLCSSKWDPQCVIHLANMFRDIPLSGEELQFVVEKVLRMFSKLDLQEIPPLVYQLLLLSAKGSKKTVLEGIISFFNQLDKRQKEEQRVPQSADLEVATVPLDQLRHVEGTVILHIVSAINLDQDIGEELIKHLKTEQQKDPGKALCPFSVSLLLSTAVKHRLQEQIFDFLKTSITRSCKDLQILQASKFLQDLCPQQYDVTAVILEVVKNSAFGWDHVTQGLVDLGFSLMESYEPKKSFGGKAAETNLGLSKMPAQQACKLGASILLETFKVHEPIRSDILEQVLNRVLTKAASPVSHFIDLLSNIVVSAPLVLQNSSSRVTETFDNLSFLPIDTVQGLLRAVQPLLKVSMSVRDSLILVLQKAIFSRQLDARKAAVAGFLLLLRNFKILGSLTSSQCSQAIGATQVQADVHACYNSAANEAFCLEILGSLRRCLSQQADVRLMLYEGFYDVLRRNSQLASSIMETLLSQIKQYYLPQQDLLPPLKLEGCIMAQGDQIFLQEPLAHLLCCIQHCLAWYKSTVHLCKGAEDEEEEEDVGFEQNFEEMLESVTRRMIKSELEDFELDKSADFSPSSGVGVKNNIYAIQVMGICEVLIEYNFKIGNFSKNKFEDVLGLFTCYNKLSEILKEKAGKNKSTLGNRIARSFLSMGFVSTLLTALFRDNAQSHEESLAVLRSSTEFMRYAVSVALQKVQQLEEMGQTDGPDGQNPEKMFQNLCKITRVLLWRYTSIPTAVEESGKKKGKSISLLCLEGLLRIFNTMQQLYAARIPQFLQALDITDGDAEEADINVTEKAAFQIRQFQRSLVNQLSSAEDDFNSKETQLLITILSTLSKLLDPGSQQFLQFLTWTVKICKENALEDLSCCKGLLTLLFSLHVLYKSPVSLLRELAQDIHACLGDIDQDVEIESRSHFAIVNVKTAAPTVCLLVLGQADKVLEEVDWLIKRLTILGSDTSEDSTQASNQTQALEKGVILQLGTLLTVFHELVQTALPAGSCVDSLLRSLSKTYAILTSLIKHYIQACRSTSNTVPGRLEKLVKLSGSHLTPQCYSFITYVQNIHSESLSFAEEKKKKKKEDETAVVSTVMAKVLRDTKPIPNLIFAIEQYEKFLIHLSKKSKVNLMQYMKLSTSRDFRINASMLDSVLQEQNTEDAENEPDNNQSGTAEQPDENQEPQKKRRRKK
# T2: GST-FANCL (chicken, UniProt Q3MUH5 1-373)
# T2 sequence: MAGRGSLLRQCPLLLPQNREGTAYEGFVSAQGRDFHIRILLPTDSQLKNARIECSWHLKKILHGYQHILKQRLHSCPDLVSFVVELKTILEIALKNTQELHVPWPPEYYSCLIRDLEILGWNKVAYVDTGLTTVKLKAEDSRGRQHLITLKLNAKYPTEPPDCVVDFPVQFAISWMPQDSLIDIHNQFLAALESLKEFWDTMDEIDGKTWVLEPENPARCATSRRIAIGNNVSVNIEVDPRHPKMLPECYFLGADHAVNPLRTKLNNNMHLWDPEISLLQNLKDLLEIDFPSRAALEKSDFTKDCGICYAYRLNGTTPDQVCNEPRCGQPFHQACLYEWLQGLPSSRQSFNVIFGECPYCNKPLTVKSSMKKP
# B1: synthetic Holliday junction (HJ) (structured_DNA)
# DNA 1: ATCGATGTCTCTAGACAGCTGCTCAGGATTGATCTGTAATGGCCTGGGA
# DNA 2: GTCCCAGGCCATTACAGATCAATCCTGAGCATGTTTACCAAGCGCATTG
# DNA 3: TGATCACTTGCTAGCGTCGCAATCCTGAGCAGCTGTCTAGAGACATCGA
# DNA 4: CCAATGCGCTTGGTAAACATGCTCAGGATTGCGACGCTAGCAAGTGATC
# B2: 5' flapped DNA (structured_DNA)
# DNA 1: B1 DNA 1
# DNA 2: B1 DNA 2
# DNA 3: CAATGCGCTTGGTAAACA
# Legend:
# Experiment in all cases: EMSA
# FANCI = target: T1, FANCI
# FANCI;FANCD2 = FANCI;FANCD2 (chicken;chicken, UniProt B0I564;Q68Y81 1-1338;1-1439, |)
# FANCI;FANCD2, sequence (Q68Y81 whole entry, one chain of several): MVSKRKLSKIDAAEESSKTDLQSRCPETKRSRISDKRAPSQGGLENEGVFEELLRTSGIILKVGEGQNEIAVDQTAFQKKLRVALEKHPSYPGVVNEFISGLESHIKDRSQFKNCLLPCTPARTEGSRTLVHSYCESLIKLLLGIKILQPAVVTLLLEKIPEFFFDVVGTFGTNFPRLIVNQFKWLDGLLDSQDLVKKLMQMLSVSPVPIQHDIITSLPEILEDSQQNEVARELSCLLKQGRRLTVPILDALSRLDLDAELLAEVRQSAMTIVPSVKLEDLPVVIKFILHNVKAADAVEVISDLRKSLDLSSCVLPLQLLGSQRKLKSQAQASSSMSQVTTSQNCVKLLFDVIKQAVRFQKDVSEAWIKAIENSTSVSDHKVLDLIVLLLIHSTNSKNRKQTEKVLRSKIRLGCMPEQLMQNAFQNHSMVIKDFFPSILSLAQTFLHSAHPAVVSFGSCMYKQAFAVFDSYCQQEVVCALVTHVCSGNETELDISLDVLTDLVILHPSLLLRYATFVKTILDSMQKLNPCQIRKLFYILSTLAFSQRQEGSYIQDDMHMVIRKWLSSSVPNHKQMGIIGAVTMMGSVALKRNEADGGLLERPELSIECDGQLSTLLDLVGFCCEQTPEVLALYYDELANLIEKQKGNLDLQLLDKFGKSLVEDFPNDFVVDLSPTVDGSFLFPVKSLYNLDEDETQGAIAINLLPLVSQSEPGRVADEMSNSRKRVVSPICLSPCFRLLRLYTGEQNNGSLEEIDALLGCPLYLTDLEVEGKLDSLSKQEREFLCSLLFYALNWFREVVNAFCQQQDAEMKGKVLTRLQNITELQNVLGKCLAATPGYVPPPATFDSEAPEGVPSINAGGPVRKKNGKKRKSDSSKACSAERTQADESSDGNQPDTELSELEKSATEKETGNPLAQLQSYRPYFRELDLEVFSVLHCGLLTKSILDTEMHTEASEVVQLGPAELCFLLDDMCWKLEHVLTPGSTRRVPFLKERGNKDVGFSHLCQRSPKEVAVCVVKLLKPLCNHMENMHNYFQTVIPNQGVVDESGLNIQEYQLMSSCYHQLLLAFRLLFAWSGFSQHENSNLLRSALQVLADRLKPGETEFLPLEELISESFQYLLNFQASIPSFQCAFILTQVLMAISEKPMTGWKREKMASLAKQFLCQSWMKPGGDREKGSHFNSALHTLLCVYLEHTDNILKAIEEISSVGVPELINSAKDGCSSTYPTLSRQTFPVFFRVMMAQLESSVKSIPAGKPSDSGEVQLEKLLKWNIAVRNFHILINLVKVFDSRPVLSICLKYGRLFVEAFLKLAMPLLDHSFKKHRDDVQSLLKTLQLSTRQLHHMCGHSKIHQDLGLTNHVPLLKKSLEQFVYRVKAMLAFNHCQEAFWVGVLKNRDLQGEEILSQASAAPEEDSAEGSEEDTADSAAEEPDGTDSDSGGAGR
# UBE2T = UBE2T (human, UniProt Q9NPD8 1-197)
# UBE2T, sequence (Q9NPD8 whole entry): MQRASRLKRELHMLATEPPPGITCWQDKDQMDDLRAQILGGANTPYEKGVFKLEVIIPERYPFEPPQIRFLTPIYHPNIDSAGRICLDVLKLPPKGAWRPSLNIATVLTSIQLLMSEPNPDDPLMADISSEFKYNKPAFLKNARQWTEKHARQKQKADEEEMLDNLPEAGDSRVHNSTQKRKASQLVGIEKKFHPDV
# GST-FANCL = target: T2, GST-FANCL
binder,measurement,setting,value
B1,binding result,FANCI,binds
B2,binding result,FANCI;FANCD2,binds
same,binding result,UBE2T,no binding
same,binding result,GST-FANCL,no binding
